According to patent US20040115763A1:

Molecular target: secreted FLAG peptide-fused G6 polypeptide G6sec2 (produced with the pVL1393-F2G6sec2-derived recombinant virus) (human) (UniProt Q9BYG0)
Test: Western blotting with anti-FLAG antibody

With “anti-FLAG peptide antibody (of YEAST AMINO-TERMINAL FLAG EXPRESSION KIT, manufactured by SIGMA)” the strength of band (band of G6sec1 eluate defined as 1) (relative to G6sec1 = 1) was 1.05.
